The results in this text go back to the supplement of paper PMC9170038.

The data set has as its system MS2 coat protein. Kind of data set: apparent KD of MS2 coat protein; designed switch direction (-1 OFF switch, 1 ON switch): -1; higher = weaker reporter binding. An outline of the steps:
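The apparent KD reported per design is the median over clusters of curve fits to normalised cluster fluorescence. The RNA switches were transcribed on Illumina chips by stalled E. coli RNA polymerase. SNAP-549-labelled MS2 coat protein was titrated from 0.7 or 1.5 nM, doubling up to 3 µM, in Tris-HCl pH 7.5 buffer containing KCl, MgCl2, BSA, DTT, tRNA and Tween-20, with no input, 200 uM small-molecule ligand, or an oligonucleotide input.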

Where [1] appears, read: Eterna round: R95, input ligand: microRNA oligo, concentration not stated.
The mark [2] stands for this setting: input ligand: microRNA oligo, concentration not stated.
[3] abbreviates: Eterna round: R95, input ligand: FMN 200 uM.
Where [4] appears, read: Eterna round: R95, input ligand: none.

Turning to “CUUCGUAUAGAGGAUAUAGGAUACUACGGUGUCCUAGAAGGCUGUACAUGAGGAUCACCCAUGUACUUCAGAUC [Exclusion 6 - B - 14:a] (puzzle: Exclusion 6)”, under setting [1], the “apparent KD of MS2 coat protein” value was 11.5 nM.

Consider “CUUCGUAUAGAGGAUAUAGGUUACUUCGGUAUCCUAGAAGGCUGUACAUGAGGAUCACCCAUGUACUUCAGAUC [Exclusion 6 - B - 13:a] (puzzle: Exclusion 6)”, for which the “apparent KD of MS2 coat protein” value under setting [1] turned out to be 12.2 nM.

Turning to “CUUGUUUAUGUAGGAUAUGCCUGGCGUGCCUUUGCAGAAGGACAUGAGGAUCACCCAUGUAACAUGAGGAUCACCCAUGUCGCA [salish99_ExNG1_r04_103] (Eterna round: R96, puzzle: Exclusion NG 1)”, the “apparent KD of MS2 coat protein” value reads like this: (input ligand: FMN 200 uM) 1190 nM; under setting [2], 555 nM; (input ligand: none) 854 nM.

For “CUUGUUUAUGUAGGAUAUGCCUGGCGUGCCUUUGCAGAAGGACAUGAGGAUCACCCAUGUAACAUGAGGCUCACCCAUGUCGCA [salish99_ExNG1_r04_104] (Eterna round: R96, puzzle: Exclusion NG 1)”, the “apparent KD of MS2 coat protein” value was 376 nM (input ligand: FMN 200 uM), 256 nM under setting [2] and 353 nM (input ligand: none).

For “CUUGUUUAUGUAGGAUAUGCCUGGCGUGCCUUUGCAGAAGGACAUGAGGAUCACCCAUGUAACAUGAGGCUCACCCUUGUCGCC [salish99_ExNG1_r04_116] (Eterna round: R96, puzzle: Exclusion NG 1)”, the “apparent KD of MS2 coat protein” value turned out to be 146 nM (input ligand: FMN 200 uM), 90.1 nM under setting [2] and 114 nM (input ligand: none).

As to “CUUUAGUAAGGAUAUCAGCUUAGGAGGUUGGUAAUGAGAGCUGAGAAGGUACAUGAGGAUCACCCAUGUUAGUU [JL Zatite mod 9] (puzzle: Exclusion 4)”, the “apparent KD of MS2 coat protein” value under setting [1] was found to be 17.1 nM.

Take “CUUUAGUGAGGAUAUCAGUAGUAAUACAAUAGUAUUACUACUGAGAAGGCACAUGAGGAUCACCCAUGUUCUUC [Mat - Exclusion 4 - Mod of Omei - D77] (puzzle: Exclusion 4)”: under setting [1], the “apparent KD of MS2 coat protein” value is 18.8 nM.

“CUUUUGUGAGGAUAUCAGUAGUAAAAUAAUAAAAUUACUACUGAGAAGGCACAUGAGGAUCACCCAUGUUCCUC [salish99_ex4_r3_019] (puzzle: Exclusion 4)”: the “apparent KD of MS2 coat protein” value under setting [1] turned out to be 36.4 nM.

For “CUUUUGUGAGGAUAUUAAUAGUAAGUAAAUAAAAUUAUUACUAAGAAGGCACAUGAGGAUCACCCAUGUUUCUC [EX4 #83] (Eterna round: R97, puzzle: Exclusion 4)”, the “apparent KD of MS2 coat protein” value reads like this: (input ligand: FMN 200 uM) 76.8 nM; (input ligand: none) 41.8 nM.

With “CUUUUGUGAGGAUAUUAGUAGUAAAUAAAUAAAAUUACUACUGAGAAGGCACAUGAGGAUCACCCAUGUUCCUC [Salish 062 v16] (Eterna round: R97, puzzle: Exclusion 4)”, the “apparent KD of MS2 coat protein” value reads like this: (input ligand: FMN 200 uM) 358 nM; (input ligand: none) 42.9 nM.

“CUUUUGUGAGGAUAUUAGUAGUAAAUAAAUAAAAUUACUACUGAGAAGGCACAUGAGGAUCACCCAUGUUCCUC [salish99_ex4_r3_041] (Eterna round: R96, puzzle: Exclusion 4)”: the “apparent KD of MS2 coat protein” value is 424 nM (input ligand: FMN 200 uM), 32.8 nM under setting [2] and 35.4 nM (input ligand: none).

As for “CUUUUGUGAGGAUAUUAGUAGUAAAUAAAUAAAAUUACUACUGAGAAGGCACAUGAGGAUCACCCAUGUUCCUC [salish99_ex4_r3_041] (puzzle: Exclusion 4)”, under setting [1], the “apparent KD of MS2 coat protein” value was 34.6 nM.

Take “CUUUUGUGAGGAUAUUAGUAGUAAAUAAAUAAAAUUACUACUUAGAAGGCACAUGAGGAUCACCCAUGUUCCUC [salish99_ex4_r3_043] (Eterna round: R96, puzzle: Exclusion 4)”: the “apparent KD of MS2 coat protein” value by setting is: (input ligand: FMN 200 uM) 238 nM; under setting [2], 25.8 nM; (input ligand: none) 29.6 nM.

Turning to “CUUUUGUGAGGAUAUUAGUAGUAAAUAAAUAAAAUUACUACUUAGAAGGCACAUGAGGAUCACCCAUGUUCCUC [salish99_ex4_r3_043] (puzzle: Exclusion 4)”, under setting [1], the “apparent KD of MS2 coat protein” value was found to be 28.3 nM.

With “CUUUUGUGAGGAUAUUAGUAGUAAAUAAAUAAAAUUACUAUUGAGAAGGCACAUGAGGAUCACCCAUGUUCCUC [salish99_ex4_r3_064] (puzzle: Exclusion 4)”, the “apparent KD of MS2 coat protein” value under setting [1] came to 30.3 nM.

For “CUUUUGUGAGGAUAUUAGUAGUAAAUAAAUAAAAUUAUUACUGAGAAGGCACAUGAGGAUCACCCAUGUUCCUU [Salish 062 v20] (Eterna round: R97, puzzle: Exclusion 4)”, the “apparent KD of MS2 coat protein” value (input ligand: FMN 200 uM) worked out at 63.6 nM and the “apparent KD of MS2 coat protein” value (input ligand: none) came to 17 nM.

On to “CUUUUGUGAGGAUAUUAGUAGUAAAUUAAUAAAAUUACUACUGAGAAGGCACAUGAGGAUCACCCAUGUUCCUC [salish99_ex4_r3_054] (puzzle: Exclusion 4)”, for which the “apparent KD of MS2 coat protein” value under setting [1] was 39.7 nM.

“CUUUUGUGAGGAUAUUAGUAGUAAGUAAAUAAAAUUAUUACUAAGAAGGCACAUGAGGAUCACCCAUGUUCCUC [EX4 #81] (Eterna round: R97, puzzle: Exclusion 4)”: the “apparent KD of MS2 coat protein” value stood at 108 nM (input ligand: FMN 200 uM) and 58 nM (input ligand: none).

With “CUUUUGUGAGGAUAUUAGUAGUUUAUAAUUAAAAUUAUUACUGAGAAGGCACAUGAGGAUCACCCAUGUACCAC [JR_Ex4_Sub030] (Eterna round: R97, puzzle: Exclusion 4)”, the “apparent KD of MS2 coat protein” value turned out to be 92.8 nM (input ligand: FMN 200 uM) and 21.8 nM (input ligand: none).

“CUUUUUUUUGUGAGGAUAUACUGUUAUUAAAGUUAGUAGAAGGUACAUGAGGAUCACCCAUGUUAAUUACUUUA [JR_BME4_Sub050] (puzzle: Brourd's mod of Exclusion 4)”: the “apparent KD of MS2 coat protein” value under setting [1] is 12.9 nM.

On to “GAAAACGCUGAGGAUAUUUCUGAUCAAAGCAGCAAAGAAGGCAGCACAUGAGGAUCACCCAUGUGGUCUUCAAA [jl-ex6-4.03 ViennaUCT mod] (Eterna round: R97, puzzle: Exclusion 6)”, for which the “apparent KD of MS2 coat protein” value turned out to be 907 nM (input ligand: FMN 200 uM) and 32.1 nM (input ligand: none).

Consider “GAAAACGUAGGAUAUUAAUACUCAGACAUGAGGAUCACCCAUGUUUGGUGGGUCGGAGAAUGAGAAGGGCGAUGAA [EX5 #14] (Eterna round: R97, puzzle: Exclusion 5)”, for which the “apparent KD of MS2 coat protein” value runs as follows: (input ligand: FMN 200 uM) 82.3 nM; (input ligand: none) 89.7 nM.

Turning to “GAAAAGGCAGAGGAUAUUUCAGAUCAAAGCUGCAAAGAAGGCUGCACAUGAGGAUCACCCAUGUGGUCUUAAAA [Mod of Quesina 5 - Jieux - Exclusion 6] (Eterna round: R97, puzzle: Exclusion 6)”, the “apparent KD of MS2 coat protein” value came to 176 nM (input ligand: FMN 200 uM) and 18.4 nM (input ligand: none).

Consider “GAAAAGGUAGAGGAUAUUUCAGAUCAAAGCUGCAAAGAAGGCUGCACAUGAGGAUCACCCAUGUGGUCUUUAAA [Mod of Quesina 10 - Jieux - Exclusion 6] (Eterna round: R97, puzzle: Exclusion 6)”, for which the “apparent KD of MS2 coat protein” value (input ligand: FMN 200 uM) worked out at 70.1 nM and the “apparent KD of MS2 coat protein” value (input ligand: none) was found to be 17.6 nM.

Regarding “GAAAAGGUAGGAUAUACGAAAAAAAAGGGUAAAAAAAAAACACAUGAGGAUCACCCAUGUAGAAGGACCAAAAG [salish99_ex2_r3_062] (puzzle: Exclusion 2)”, the “apparent KD of MS2 coat protein” value under setting [3] worked out at 44.4 nM, the “apparent KD of MS2 coat protein” value under setting [1] turned out to be 32.4 nM and the “apparent KD of MS2 coat protein” value under setting [4] turned out to be 34 nM.

For “GAAAAGGUAGGAUAUAUGAAAAAAAAGGGUAGAAAAAAAACACAUGAGGAUCACCCAUGUAGAAGGACCAAAAG [salish99_ex2_r3_056] (puzzle: Exclusion 2)”, the “apparent KD of MS2 coat protein” value runs as follows: under setting [3], 37.2 nM; under setting [1], 46.3 nM; under setting [4], 26.9 nM.

For “GAAAAGUGAGGAUAUGGUAAAAGAAAAAGAAAAAGAAAACUCCAGAAGGCACAUGAGGAUCACCCAUGUAAAAG [salish99_ex4_r3_005] (puzzle: Exclusion 4)”, the “apparent KD of MS2 coat protein” value amounted to 26.9 nM under setting [3], 19.4 nM under setting [1] and 23.6 nM under setting [4].

For the sequence “GAAAAGUGAGGAUAUUGUUUUUUUUUGAAAACGGGAGAGGGCAAGAAGGCACAUGAGGAUCACCCAUGUAAGGU [Alacar 2] (Eterna round: R97, puzzle: Exclusion 4)”, the “apparent KD of MS2 coat protein” value is, setting by setting: (input ligand: FMN 200 uM) 66.4 nM; (input ligand: none) 44.1 nM.

“GAAAAUGUGGAGGAUAUCGACUUCGAAAGAAGUCGAGAAGGCCACACAUGAGGAUCACCCAUGUGAUGCCAAUA [Omei Ex6 H9] (Eterna round: R97, puzzle: Exclusion 6)”: the “apparent KD of MS2 coat protein” value is, setting by setting: (input ligand: FMN 200 uM) 443 nM; (input ligand: none) 284 nM.

With “GAAAAUGUGGAGGAUAUCGACUUCGAAAGAAGUCGAGAAGGCCACACAUGAGGAUCACCCAUGUGUGCCUUAAA [Omei Ex6 H3] (Eterna round: R97, puzzle: Exclusion 6)”, the “apparent KD of MS2 coat protein” value runs as follows: (input ligand: FMN 200 uM) 23.9 nM; (input ligand: none) 12 nM.

On to “GAAAAUGUGGAGGAUAUCGACUUCGAAAGAAGUCGAGAAGGCCACACAUGAGGAUCACCCAUGUGUUCCUUCAA [Omei Ex6 H2] (Eterna round: R97, puzzle: Exclusion 6)”, for which the “apparent KD of MS2 coat protein” value by setting is: (input ligand: FMN 200 uM) 569 nM; (input ligand: none) 52.2 nM.

For the sequence “GAACAGGUAGGAUAUACUGGACGCGACAUGAGGAUCACCCAUGUCCUCGGCAUAGGCGCUGUAGAAGGGCCUAAAA [Eternabot (Original) Solution 29] (Eterna round: R97, puzzle: Exclusion 5)”, the “apparent KD of MS2 coat protein” value was found to be 29.9 nM (input ligand: FMN 200 uM) and 30.2 nM (input ligand: none).

As for “GAAGGACGAGGAUAUGUAUGGGACAGCCGAGGAAAAUCUCAACAUGAGGAUCACCCAUGUAGAAGGCGUGCCCG [Eternabot (Original) Solution 44] (Eterna round: R97, puzzle: Exclusion 2)”, the “apparent KD of MS2 coat protein” value (input ligand: FMN 200 uM) was found to be 16.4 nM and the “apparent KD of MS2 coat protein” value (input ligand: none) stood at 14.1 nM.
